The target in one data set is His6-CRP (Escherichia coli, UniProt P0ACJ8 1-210). The data set can be described thus: EMSA; 0.2 mM cAMP; EMSA: 20 mM Tris-HCl pH 8.0, 50 mM NaCl, 1 mM EDTA, 1 mM beta-mercaptoethanol, 10% glycerol, 37 C 30 min; 6% polyacrylamide gel in ice bath; 0.2 mM cAMP for CRP. Conditions: protein: recombinant; tags: His6 (pET28a); chain copies: 2; blunt. For orientation: A gel shift assay detects complexes by their altered migration in electrophoresis.

The target of a further data set is His6-FNR D154A (Escherichia coli, UniProt P0A9E5 1-250, D154A). The data set can be described thus: EMSA; two retarded bands; EMSA: 20 mM Tris-HCl pH 8.0, 50 mM NaCl, 1 mM EDTA, 1 mM beta-mercaptoethanol, 10% glycerol, 37 C 30 min; 6% polyacrylamide gel in ice bath; 0.2 mM cAMP for CRP. The following applies: protein: recombinant; tags: His6 (pET28a); chain copies: 2; blunt.

B1: PompW -120 to -3 native (dsDNA)
DNA 1: CATTAACCAGGATTCTCAATGCAACTTCTAAATTAATCCAGATCAATAAAGGGTGAATTATCATATGTAATGTGATCTATGTAGGATCATTTGTTACTCCAATGTAGGTATATTCGTC
DNA 2: GACGAATATACCTACATTGGAGTAACAAATGATCCTACATAGATCACATTACATATGATAATTCACCCTTTATTGATCTGGATTAATTTAGAAGTTGCATTGAGAATCCTGGTTAATG
As for B1, the binding result in the data set with His6-CRP is “binds”.

B2: PompW m-42.5 (dsDNA)
DNA 1: CATTAACCAGGATTCTCAATGCAACTTCTAAATTAATCCAGATCAATAAAGGGTGAATTATCATATGTAATCTATGTAGGATCATTTGTTACTCCAATGTAGGTATATTCGTC
DNA 2: GACGAATATACCTACATTGGAGTAACAAATGATCCTACATAGATTACATATGATAATTCACCCTTTATTGATCTGGATTAATTTAGAAGTTGCATTGAGAATCCTGGTTAATG
B2: the binding result with His6-CRP is reported as “no binding”.

B3: PompW -167 to -36 native (dsDNA)
DNA 1: GAGTTAATATTTGCGTAGCGAAAATATTTAAAAATTGATTTAAATCACATTAACCAGGATTCTCAATGCAACTTCTAAATTAATCCAGATCAATAAAGGGTGAATTATCATATGTAATGTGATCTATGTAGG
DNA 2: CCTACATAGATCACATTACATATGATAATTCACCCTTTATTGATCTGGATTAATTTAGAAGTTGCATTGAGAATCCTGGTTAATGTGATTTAAATCAATTTTTAAATATTTTCGCTACGCAAATATTAACTC
On to B3, for which the binding result in the data set with His6-FNR D154A is reported as “binds”.

For the origin of these results see paper PMC4886647, “Transcriptional Regulation of the Outer Membrane Porin Gene ompW Reveals its Physiological Role during the Transition from the Aerobic to the Anaerobic Lifestyle of Escherichia coli”.
